Experimental data from patent US10563220B2, “Compositions and methods for efficient targeting of transgenes” (priority 2015, dated 2020).

Experiments:
knockout E. coli strain = format: cell-based; conditions: LB medium, acifluorfen 1 mM, flumioxazin 0.5 mM, lactofen 0.5 mM, fomesafen 1 mM, S-3100 100 μM
[1] = test system: R0 transgenic maize plants; assay: CTP-PPO herbicide tolerance evaluation in R0 transgenic maize (S-3100); format: in vivo
Method: R0 plants each containing a unique transformation event were sprayed with 40 g ai/ha or 80 g ai/ha of S-3100 at approximately the V5 growth stage and injury ratings were taken 4-7 days after treatment. The number of plants with ≤10% injury (highly tolerant) or ≤20% injury (tolerant) of the total number of sprayed plants was recorded. Plants that were determined to be single-copy events and that passed spray at ≤20% injury were advanced to selfing and outcrossing.

[2] = test system: R1 transgenic cotton plants; assay: R1 cotton greenhouse dicamba injury; conditions: dicamba 1120 g ai/ha at V4; rated 9 days after treatment; DMO SEQ ID NO:18
Excerpt: Ten R1 seeds per event from 10 events for each construct and seed from DP393 cotton was planted to evaluate crop tolerance to post-emergence application of dicamba. Dicamba (Clarity) was applied at the V4 stage at 1120 g ai/ha. Crop injury percent ratings were taken 9 days after the treatment.

[3] = test system: R1 transgenic soybean plants; assay: R1 soybean greenhouse dicamba injury; conditions: dicamba 1120 g ai/ha at V4; rated 10 days after treatment; DMO SEQ ID NO:18
Excerpt: Transgenic soybean plants were generated with two DNA constructs that were identical except for the APG6 CTP. The first DNA construct had APG6 (SEQ ID NO:1) operably linked to DMO (SEQ ID NO:18). The second DNA construct had the optimized APG6 (SEQ ID NO:2) operably linked to DMO (SEQ ID NO:18). Each DNA construct was used to transform A3555 soybean by Agrobacterium mediated transformation methods. Following transformation, R0 transgenic plants containing a single copy of the transgene were identified by PCR assay. Single-copy R0 plants were grown in greenhouse, and R1 seed was harvested. Ten R1 seeds per event for 4 events generated using each of the two DNA constructs and AG3555 seed was planted for evaluation of crop tolerance to post-emergence dicamba treatment under standard greenhouse growth conditions. Dicamba (Clarity) was applied at the V4 stage at 1120 g ai/ha. Crop injury ratings were taken 10 days after the treatment.

[4] = test system: transgenic single-copy R0 soybean plants; assay: S-3100 efficacy evaluation in R0 soybean; conditions: PPO H_N90; 20 g ai/ha S-3100 at about V3; 14 days after treatment
Excerpt: Transgenic single-copy R0 plants, each representing a unique event, were sprayed in the greenhouse with the herbicide treatment 20 g ai/ha S-3100 applied at approximately the V3 stage. Injury ratings were taken 14 days after treatment as the number that were deemed highly tolerant (≤10% injury) or tolerant (≤20% injury).

[5] = test system: transgenic Brassica napus plants; assay: Dicamba tolerance in R0 Brassica napus, greenhouse; conditions: R0 plants with one copy with vector backbone or two copies, tolerant = injury 20% or less, 21 days
Method: Brassica napus variety 65037 Restorer line was used for Agrobacterium-mediated transformation and R0 plants were grown in the greenhouse.
Dicamba tolerance was assessed using R0 plants with one copy of transgene with vector backbone or two copies of transgene. Dicamba tolerance was designated as dicamba injury of 20% or less under greenhouse conditions.
Dicamba tolerance was assessed on R0 plants with a one copy of the transgene. Plants were sprayed in the greenhouse with dicamba (Clarity) at 1 lb ae/acre (2× rate), and dicamba tolerance was determined 14 to 21 days later.

[6] = construct configuration 17, PPO H_N40, S-3100 80 g ai/ha
[7] = construct configuration 17, PPO H_N90, S-3100 40 g ai/ha
[8] = construct configuration 18, PPO H_N40, S-3100 80 g ai/ha
[9] = construct configuration 19, PPO H_N40, S-3100 80 g ai/ha

B1: WH_PPO: protoporphyrinogen oxidase from Amaranthus tuberculatus (waterhemp), SEQ ID NO:60 (protein, listed as Amaranthus tuberculatus)
chain: MGNISEREEPTSAKRVAVVGAGVSGLAAAYKLKSHGLSVTLFEADSRAGGKLKTVKKDGFIWDEGANTMTESEAEVSSLIDDLGLREKQQLPISQNKRYIARDGLPVLLPSNPAALLTSNILSAKSKLQIMLEPFLWRKHNATELSDEHVQESVGEFFERHFGKEFVDYVIDPFVAGTCGGDPQSLSMHHTFPEVWNIEKRFGSVFAGLIQSTLLSKKEKGGENASIKKPRVRGSFSFQGGMQTLVDTMCKQLGEDELKLQCEVLSLSYNQKGIPSLGNWSVSSMSNNTSEDQSYDAVVVTAPIRNVKEMKIMKFGNPFSLDFIPEVTYVPLSVMITAFKKDKVKRPLEGFGVLIPSKEQHNGLKTLGTLFSSMMFPDRAPSDMCLFTTFVGGSRNRKLANASTDELKQIVSSDLQQLLGTEDEPSFVNHLFWSNAFPLYGHNYDSVLRAIDKMEKDLPGFFYAGNHKGGLSVGKAMASGCKAAELVISYLDSHIYVKMDEKTA
growth of knockout E. coli strain expressing the PPO in the presence of a PPO herbicide (knockout E. coli strain): sensitive

B2: APG6: Arabidopsis thaliana albino and pale green (APG6) chloroplast transit peptide, SEQ ID NO:1, tested linked to DMO or PPO (protein, listed as Arabidopsis thalinana)
chain: MATATTTATAAFSGVVSVGTETRRIYSFSHLQPSAAFPAKPSSFKSLKLKQSARLTRRLDHRPFVVRC
≤10% injury (percent of plants) [1, 6]: (37.5%) | ≤10% injury (plants of total sprayed) [1, 6]: 42/112 | ≤20% injury (percent of plants) [1, 6]: (58%) | ≤20% injury (plants of total sprayed) [1, 6]: 65/112 | ≤10% injury (percent of plants) [1, 7]: (49.1%) | ≤10% injury (plants of total sprayed) [1, 7]: 55/112 | ≤20% injury (percent of plants) [1, 7]: 56.3%) | ≤20% injury (plants of total sprayed) [1, 7]: 63/112 | ≤10% injury (percent of plants) [1, 8]: (40.2%) | ≤10% injury (plants of total sprayed) [1, 8]: 45/112 | ≤20% injury (percent of plants) [1, 8]: (58.9%) | ≤20% injury (plants of total sprayed) [1, 8]: 66/112 | ≤10% injury (percent of plants) [1, 9]: (21.4%) | ≤10% injury (plants of total sprayed) [1, 9]: 12/56 | ≤20% injury (percent of plants) [1, 9]: (41.1%) | ≤20% injury (plants of total sprayed) [1, 9]: 23/56 | dicamba % Injury, V4 stage [2]: 2.6% | Dicamba Injury, V4 stage [3]: 3.6% | ≤10% injury (events of total, highly tolerant) [4]: 3/14 | ≤10% injury (percent of unique events) [4]: 21.4% | ≤20% injury (events of total, tolerant) [4]: 8/14 | ≤20% injury (percent of unique events) [4]: 57.1% | 2X Tolerant events ([5]; dicamba 1 lb ae/acre): 7/14 | 4X Tolerant events ([5]; dicamba 2 lb ae/acre): 6/18
